Bounds are passed on as bounds.

Drawing on patent US20170296640A1 (IMMATICS BIOTECHNOLOGIES, published 2017), this text covers peptide exchange yield for 49 molecules.

The target in this assay is T1, HLA-A*02:01 (peptide-receptive MHC class I monomer after UV cleavage of the UV-sensitive ligand) (human).
T1 construct: MHC monomers loaded by UV-ligand exchange and captured on streptavidin plates
The assay is described as follows: UV ligand-exchange ELISA; exchange yield grade (+ >=10%, ++ >=20%, +++ >=50%, ++++ >=75%). The text has this:
Candidate peptides for T cell based therapies according to the present invention were further tested for their MHC binding capacity (affinity). The individual peptide-MHC complexes were produced by UV-ligand exchange, where a UV-sensitive peptide is cleaved upon UV-irradiation, and exchanged with the peptide of interest as analyzed. Only peptide candidates that can effectively bind and stabilize the peptide-receptive MHC molecules prevent dissociation of the MHC complexes. To determine the yield of the exchange reaction, an ELISA was performed based on the detection of the light chain (β2m) of stabilized MHC complexes. The assay was performed as generally described in Rodenko et al. (Rodenko et al., 2006).
96 well MAXISorp plates (NUNC) were coated over night with 2 ug/ml streptavidin in PBS at room temperature, washed 4× and blocked for 1 h at 37° C. in 2% BSA containing blocking buffer. Refolded HLA-A*02:01/MLA-001 monomers served as standards, covering the range of 15-500 ng/ml. Peptide-MHC monomers of the UV-exchange reaction were diluted 100 fold in blocking buffer. Samples were incubated for 1 h at 37° C., washed four times, incubated with 2 ug/ml HRP conjugated anti-β2m for 1 h at 37° C., washed again and detected with TMB solution that is stopped with […]. Absorption was measured at 450 nm. Candidate peptides that show a high exchange yield (preferably higher than 50%, most preferred higher than 75%) are generally preferred for a generation and production of antibodies or fragments thereof, and/or T cell receptors or fragments thereof, as they show sufficient avidity to the MHC molecules and prevent dissociation of the MHC complexes.
A general note: In an ELISA, binding on a coated surface is turned into a signal by an enzyme label.
The molecule YQYPFVLGL [YQYPFVLGL (SEQ ID NO: 110)] came in with a peptide exchange yield of at least 75%. In turn, FIFGIVHLL [FIFGIVHLL (SEQ ID NO: 136)] registered a peptide exchange yield of 50 to 75%. As for YLLDTLLSL [YLLDTLLSL (SEQ ID NO: 111)], the figure is 50 to 75%; as for AISEAQESV [AISEAQESV (SEQ ID NO: 122)], 20 to 50%; as for NLINNIFEL [NLINNIFEL (SEQ ID NO: 138)], at least 75%.

For the molecule KLFDASPTFFA [KLFDASPTFFA (SEQ ID NO: 128)], the peptide exchange yield was in the range of 50 to 75%. LLIDIIHFL [LLIDIIHFL (SEQ ID NO: 115)] gave a peptide exchange yield of at least 75%. Molecule GLITQVDKL [GLITQVDKL (SEQ ID NO: 144)] registered a peptide exchange yield of 50 to 75%. As for FLLVGTQIDL [FLLVGTQIDL (SEQ ID NO: 10)], the figure is 50 to 75%; as for VIFSYVLGV [VIFSYVLGV (SEQ ID NO: 130)], 50 to 75%; as for LLSGQLPTI [LLSGQLPTI (SEQ ID NO: 1)], 50 to 75%. As for VLIEETDQL [VLIEETDQL (SEQ ID NO: 131)], the figure is 20 to 50%. Molecule GLDTVVALL [GLDTVVALL (SEQ ID NO: 11)] had a peptide exchange yield of 50 to 75%. Consider SLFAAISGMIL [SLFAAISGMIL (SEQ ID NO: 102)], for which the peptide exchange yield is 50 to 75%. VLLGLPLLV [VLLGLPLLV (SEQ ID NO: 104)] had a peptide exchange yield of 50 to 75%. ELCDIILRV [ELCDIILRV (SEQ ID NO: 119)] displayed a peptide exchange yield of 50 to 75%. SLLDNLLTI [SLLDNLLTI (SEQ ID NO: 116)] yielded a peptide exchange yield of 50 to 75%. As for GLLLLVPLL [GLLLLVPLL (SEQ ID NO: 12)], the figure is 50 to 75%. HLMEENMIVYV [HLMEENMIVYV (SEQ ID NO: 127)] came in with a peptide exchange yield of 50 to 75%. As for VLQDQVDEL [VLQDQVDEL (SEQ ID NO: 132)], the peptide exchange yield fell in the range of 20 to 50%. As to FLGVVVPTV [FLGVVVPTV (SEQ ID NO: 124)], the peptide exchange yield fell in the range of 50 to 75%. For the molecule ALEELTGFREL [ALEELTGFREL (SEQ ID NO: 133)], the peptide exchange yield fell in the range of 20 to 50%. Consider VLYELLQYI [VLYELLQYI (SEQ ID NO: 106)], for which the peptide exchange yield is at least 75%. The molecule ALGRLGILSV [ALGRLGILSV (SEQ ID NO: 134)] gave a peptide exchange yield of 50 to 75%.

On to LLSDPTPGA [LLSDPTPGA (SEQ ID NO: 14)], for which the peptide exchange yield lay in the range of 20 to 50%. In turn, VLLGTTWAL [VLLGTTWAL (SEQ ID NO: 120)] registered a peptide exchange yield of 50 to 75%. FVAPPTAAV [FVAPPTAAV (SEQ ID NO: 125)] registered a peptide exchange yield of 50 to 75%. As for FVIDSFEEL [FVIDSFEEL (SEQ ID NO: 113)], the figure is 50 to 75%; as for FLASPLVAI [FLASPLVAI (SEQ ID NO: 139)], at least 75%. As for ALLSAFVQL [ALLSAFVQL (SEQ ID NO: 123)], the figure is 50 to 75%; as for VLTPVILQV [VLTPVILQV (SEQ ID NO: 105)], 50 to 75%.

VQAVSIPEV [VQAVSIPEV (SEQ ID NO: 107)] returned a peptide exchange yield of 50 to 75%.

VLATILAQL [VLATILAQL (SEQ ID NO: 117)]: the peptide exchange yield was at least 75%. As for HLVPASWKL [HLVPASWKL (SEQ ID NO: 13)], the figure is 50 to 75%. As for SLFEASQQL [SLFEASQQL (SEQ ID NO: 129)], the figure is 50 to 75%; as for FLGELTLQL [FLGELTLQL (SEQ ID NO: 141)], 50 to 75%. Molecule VLDGMIYAI [VLDGMIYAI (SEQ ID NO: 118)] registered a peptide exchange yield of 50 to 75%. As for YLFQFSAAL [YLFQFSAAL (SEQ ID NO: 109)], the figure is 50 to 75%; as for YLAPENGYLM [YLAPENGYLM (SEQ ID NO: 108)], 50 to 75%. As for TLHAVDVTL [TLHAVDVTL (SEQ ID NO: 143)], the figure is 50 to 75%. As for SLDQSTWNV [SLDQSTWNV (SEQ ID NO: 101)], the figure is at least 75%. Molecule FLYEDSKSVRL [FLYEDSKSVRL (SEQ ID NO: 142)] came in with a peptide exchange yield of 50 to 75%. FLAILPEEV [FLAILPEEV (SEQ ID NO: 112)] displayed a peptide exchange yield of 50 to 75%. Turning to GLSDISPST [GLSDISPST (SEQ ID NO: 114)], the peptide exchange yield lay in the range of 20 to 50%. As for FLFEDFVEV [FLFEDFVEV (SEQ ID NO: 140)], the figure is 50 to 75%; as for FIQQERFFL [FIQQERFFL (SEQ ID NO: 137)], 50 to 75%; as for YLTGYNFTL [YLTGYNFTL (SEQ ID NO: 121)], 50 to 75%. In the case of ALTGLQFQL [ALTGLQFQL (SEQ ID NO: 135)], the peptide exchange yield lay in the range of 50 to 75%. SLQDHLEKV [SLQDHLEKV (SEQ ID NO: 103)] showed a peptide exchange yield of 50 to 75%.
